Data on 36 molecules can be found in patent US6759384 (AVENTIS PHARMACEUTICALS, dated 2004).

Starred links: 1 amine or outer side, 2 acyl side, 3 side chain; linkers in the order of their positions; H or OH if unused. Positions of bridges follow the written chain, without caps; N, C: chain ends. Non-standard residues stand in square brackets, D forms with d. Primed or numbered codes have the meaning given here. No end group written: not given here. *: point of attachment. Dab(Nγ-C3H7N)″ = 2,4-diaminobutyric acid with dimethylamidinium (N,N-dimethylformamidinium) on gamma-N, C[N+](C)=CNCC[C@H](N[*:1])C(=O)[*:2]; Dab(Nγ-C3H7N) = Dab bearing Nγ-dimethylamidinium (C3H7N), C[N+](C)=CNCC[C@H](N[*:1])C(=O)[*:2]; (iBu)Tyr = N-isobutyl-L-tyrosine, CC(C)CN([C@@H](Cc1ccc(O[*:3])cc1)C(=O)[*:2])[*:1]; Tyr(Me)″ = O-methyl-tyrosine (source: Y(Me)), COc1ccc(C[C@H](N[*:1])C(=O)[*:2])cc1; Thr(Me) = O-methyl-threonine (source: T(Me)), CO[C@H](C)[C@H](N[*:1])C(=O)[*:2]; Cys(Me) = S-methylcysteine (source: C(Me)), CSC[C@H](N[*:1])C(=O)[*:2]; Pen(Me) = S-methyl-penicillamine, CSC(C)(C)[C@H](N[*:1])C(=O)[*:2]; Tyr(Me) = O-methyltyrosine, COc1ccc(C[C@H](N[*:1])C(=O)[*:2])cc1; Orn(Nδ-C3H7N) = ornithine with dimethylamidinium on delta-N; Phe(4-NO2) = N[C@@H](Cc1ccc([N+](=O)[O-])cc1)C(=O)O; Phe(4-CONH2) = NC(=O)c1ccc(C[C@H](N)C(=O)O)cc1; Phe(4-NH2) = Nc1ccc(C[C@H](N)C(=O)O)cc1; Phe(4-F) = N[C@@H](Cc1ccc(F)cc1)C(=O)O; 2Nal = N[C@@H](Cc1ccc2ccccc2c1)C(=O)O; NMeY = CN[C@@H](Cc1ccc(O)cc1)C(=O)O; dNMeY = CN[C@H](Cc1ccc(O)cc1)C(=O)O; hArg = N=C(N)NCCCC[C@H](N)C(=O)O; Cha = N[C@@H](CC1CCCCC1)C(=O)O; Agb = N=C(N)NCC[C@H](N)C(=O)O; Chg = N[C@H](C(=O)O)C1CCCCC1; Phg = N[C@H](C(=O)O)c1ccccc1; Pth = not defined here; pal = not defined here; Tfa = O=C(C(F)(F)F)*; Isobutyl = CC(C)C*; βAla = NCCC(=O)O; tBu = CC(C)(C)*

Usually Ki stands for the equilibrium dissociation constant of an inhibitor or competing ligand from its target. A low value points to higher affinity.

The target in the experiment is human factor Xa (Enzyme Research Laboratories, Inc.) (human, UniProt P00742 41-179; P00742 235-488, limits assumed). Kind of experiment: chromogenic FXa inhibition. The protocol: TBS-P buffer (50 mM Tris-Cl, pH 7.8, 200 mM NaCl, 0.05% (w/v) PEG-8000, 0.02% (w/v) NaN_3) was used for this assay. The IC$50$ was determined by combining in appropriate wells of a Costar half-area microtiter plate 25 μl human factor Xa (Enzyme Research Laboratories, Inc.; South Bend Ind.) in TBS-P; 40 μl 10% (v/v) DMSO in TBS-P (uninhibited control) or various concentrations of a peptide to be tested diluted in 10% (v/v) DMSO in TBS-P; and substrate S-2765 (Nα-benzyloxycarbonyl-D-Arg-Gly-L-Arg-p-nitroanilide; Kabi Pharmacia, Inc.; Franklin Ohio) in TBS-P.
The assays were performed by pre-incubating the peptide inhibitor plus enzyme for 10 min, then the assay was initiated by adding substrate to obtain a final volume of 100 μl. The initial velocity of chromogenic substrate hydrolysis was measured by the change in absorbance at 405 nm using a Bio-tek Instruments kinetic plate reader (Ceres UV900HDi) at 25° C. during the linear portion of the time course (usually 1–5 min after addition of substrate). The concentration of inhibitor that caused a 50% decrease in the rate of substrate hydrolysis was predicted by linear regression after plotting the relative rates of hydrolysis (compared to the uninhibited control) versus the log of the peptide concentration. The enzyme concentration was 0.5 nM and substrate concentration was 140 μM.

human factor Xa (Enzyme Research Laboratories, Inc.), sequence (P00742 41-179 limits assumed, chain 1 of 2): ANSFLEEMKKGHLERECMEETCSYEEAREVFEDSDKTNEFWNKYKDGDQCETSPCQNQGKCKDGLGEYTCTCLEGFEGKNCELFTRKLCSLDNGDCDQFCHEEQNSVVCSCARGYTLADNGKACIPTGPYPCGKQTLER
human factor Xa (Enzyme Research Laboratories, Inc.), sequence (P00742 235-488 limits assumed, chain 2 of 2): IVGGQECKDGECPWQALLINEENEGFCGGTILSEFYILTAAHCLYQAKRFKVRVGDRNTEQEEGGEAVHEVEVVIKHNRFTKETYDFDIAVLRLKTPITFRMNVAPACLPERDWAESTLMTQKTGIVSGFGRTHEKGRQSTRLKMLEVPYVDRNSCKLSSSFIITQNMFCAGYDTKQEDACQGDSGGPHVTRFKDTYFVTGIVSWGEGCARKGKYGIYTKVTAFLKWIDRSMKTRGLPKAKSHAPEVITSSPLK

B1: Ac-βAla-Y-I-R-L-G-NH2 (peptide)
peptide: Ac-[βAla]YIRLG-NH2
SMILES: CC[C@H](C)[C@H](NC(=O)[C@H](Cc1ccc(O)cc1)NC(=O)CCNC(C)=O)C(=O)N[C@@H](CCCNC(=N)N)C(=O)N[C@@H](CC(C)C)C(=O)NCC(N)=O
Take B1: the Ki is less than 100 µM.
As for Pth-YIRLP-NH2 (reading uncertain; also: printed as Pth-Y-I-R-L-P-NH2) [Pth-Y-I-R-L-P-NH2], the Ki was less than 100 µM.
With XIRLP (N-term Ac; Y1=Tyr(3,5-NO2); C-term NH2) [Ac-Tyr(3,5-NO2)-I-R-L-P-NH2] the figure was less than 100 µM.
Ac-EYIRLPK-NH2 (also: cyclisation unknown (underlining lost), may be cyclic; underlining lost) [Ac-E-Y-I-R-L-P-K-NH2] displayed a Ki of less than 100 µM.
As to Ac-[(iBu)Tyr]I[Dab(Nγ-C3H7N)″]LP-NH2 [Ac-(iBu)Y-I-Dab(N^γ-C3H7N)-L-P-NH2], the Ki is less than 100 µM.

B2: y-I-(nR)-L-A-NH2 (peptide)
peptide: [dY]I[Agb]LA-NH2
modifications: N-terminus assumed
SMILES: CC[C@H](C)[C@H](NC(=O)[C@H](N)Cc1ccc(O)cc1)C(=O)N[C@@H](CCNC(=N)N)C(=O)N[C@@H](CC(C)C)C(=O)N[C@@H](C)C(N)=O
For B2, the Ki was less than 100 µM.

B3: Ac-Y-I-Dab(N^γC3H7N)-L-A-NH2 (peptide)
peptide: Ac-YI[Dab(Nγ-C3H7N)]LA-NH2
SMILES: CC[C@H](C)[C@H](NC(=O)[C@H](Cc1ccc(O)cc1)NC(C)=O)C(=O)N[C@@H](CCNC=[N+](C)C)C(=O)N[C@@H](CC(C)C)C(=O)N[C@@H](C)C(N)=O
On to B3, for which the Ki is less than 100 µM.

B4: Ac-Y-I-hR-L-A-NH2 (peptide)
peptide: Ac-YI[hArg]LA-NH2
SMILES: CC[C@H](C)[C@H](NC(=O)[C@H](Cc1ccc(O)cc1)NC(C)=O)C(=O)N[C@@H](CCCCNC(=N)N)C(=O)N[C@@H](CC(C)C)C(=O)N[C@@H](C)C(N)=O
B4: the Ki was less than 100 µM.

B5: Ac-Y-I-nR-L-A-NH2 (peptide)
peptide: Ac-YI[Agb]LA-NH2
SMILES: CC[C@H](C)[C@H](NC(=O)[C@H](Cc1ccc(O)cc1)NC(C)=O)C(=O)N[C@@H](CCNC(=N)N)C(=O)N[C@@H](CC(C)C)C(=O)N[C@@H](C)C(N)=O
On to B5, for which the Ki was less than 100 µM.
Take XIRLP (N-term Ac; N-(Me) on Y1; C-term NH2) [Ac-(Me)Y-I-R-L-P-NH2]: the Ki was less than 100 µM.
In turn, XIRLP (N-term Ac; N-(trans-CH3-CH═C(CH3)-CH2) on Y1; C-term NH2) [Ac-(trans-CH3-CH═C(CH3)-CH2)Y-I-R-L-P-NH2] came in with a Ki of less than 100 µM.
With Ac-YIRLP-NH2 [Ac-Y-I-R-L-P-NH2] the figure was less than 100 µM; with Ac-YIRIP [Ac-Y-I-R-I-P], less than 100 µM.

B6: (Me)y-I-R-L-A-NH2 (peptide)
peptide: [dNMeY]IRLA-NH2
modifications: N-terminus assumed
SMILES: CC[C@H](C)[C@H](NC(=O)[C@@H](Cc1ccc(O)cc1)NC)C(=O)N[C@@H](CCCNC(=N)N)C(=O)N[C@@H](CC(C)C)C(=O)N[C@@H](C)C(N)=O
B6 showed a Ki of less than 100 µM.
With Ac-YIRLA (printed without -NH2) [Ac-Y-I-R-L-A] the figure was less than 100 µM; with Isobutyl-YIRLA-NH2 [(iBu)Y-I-R-L-A-NH2], less than 100 µM.

B7: Ac-Y(Me)-I-R-L-A-NH2 (peptide)
peptide: Ac-[Tyr(Me)″]IRLA-NH2
SMILES: CC[C@H](C)[C@H](NC(=O)[C@H](Cc1ccc(OC)cc1)NC(C)=O)C(=O)N[C@@H](CCCNC(=N)N)C(=O)N[C@@H](CC(C)C)C(=O)N[C@@H](C)C(N)=O
B7 showed a Ki of less than 100 µM.

B8: Tyr(Me)-I-R-L-A-NH2 (peptide)
peptide: [Tyr(Me)]IRLA-NH2
modifications: N-terminus assumed
SMILES: CC[C@H](C)[C@H](NC(=O)[C@@H](N)Cc1ccc(OC)cc1)C(=O)N[C@@H](CCCNC(=N)N)C(=O)N[C@@H](CC(C)C)C(=O)N[C@@H](C)C(N)=O
Molecule B8 had a Ki of less than 100 µM.

B9: pal-C(SBut)-R-L-P-NH2 (peptide)
peptide: [pal]C(tBu)RLP-NH2
modifications: reading uncertain; also: pyridylalanine ring position not given here, printed as pal-C(SBut)-R—L—P—NH2
B9 registered a Ki of less than 100 µM.

B10: Ac-(Me)Y-I-R-L-A-NH2 (peptide)
peptide: Ac-[NMeY]IRLA-NH2
SMILES: CC[C@H](C)[C@H](NC(=O)[C@H](Cc1ccc(O)cc1)N(C)C(C)=O)C(=O)N[C@@H](CCCNC(=N)N)C(=O)N[C@@H](CC(C)C)C(=O)N[C@@H](C)C(N)=O
B10 came in with a Ki of less than 100 µM.

B11: pal-I-R-C(SBut)-P-NH2 (peptide)
peptide: [pal]IRC(tBu)P-NH2
modifications: reading uncertain; also: pyridylalanine ring position not given here, printed as pal-I-R-C(SBut)-P-NH2
Regarding B11, the inhibition constant Ki was less than 100 µM.

B12: Tfa-(Me)Y-I-R-L-A-NH2 (peptide)
peptide: Tfa-[NMeY]IRLA-NH2
SMILES: CC[C@H](C)[C@H](NC(=O)[C@H](Cc1ccc(O)cc1)N(C)C(=O)C(F)(F)F)C(=O)N[C@@H](CCCNC(=N)N)C(=O)N[C@@H](CC(C)C)C(=O)N[C@@H](C)C(N)=O
B12 showed a Ki of less than 100 µM.

B13: F(pNH2)-I-R-L-A-NH2 (peptide)
peptide: [Phe(4-NH2)]IRLA-NH2
modifications: N-terminus assumed
SMILES: CC[C@H](C)[C@H](NC(=O)[C@@H](N)Cc1ccc(N)cc1)C(=O)N[C@@H](CCCNC(=N)N)C(=O)N[C@@H](CC(C)C)C(=O)N[C@@H](C)C(N)=O
Turning to B13, the Ki is less than 100 µM.

B14: F(pNO2)-I-R-L-A-NH2 (peptide)
peptide: [Phe(4-NO2)]IRLA-NH2
modifications: N-terminus assumed
SMILES: CC[C@H](C)[C@H](NC(=O)[C@@H](N)Cc1ccc([N+](=O)[O-])cc1)C(=O)N[C@@H](CCCNC(=N)N)C(=O)N[C@@H](CC(C)C)C(=O)N[C@@H](C)C(N)=O
Turning to B14, the Ki was less than 100 µM.

B15: Nal(2)-I-R-C(Me)-P-NH2 (peptide)
peptide: [2Nal]IR[Cys(Me)]P-NH2
modifications: N-terminus assumed
SMILES: CC[C@H](C)[C@H](NC(=O)[C@@H](N)Cc1ccc2ccccc2c1)C(=O)N[C@@H](CCCNC(=N)N)C(=O)N[C@@H](CSC)C(=O)N1CCC[C@H]1C(N)=O
In turn, B15 returned a Ki of less than 100 µM.

B16: Ac-E-Y-I-R-L-K-NH2** (peptide)
peptide: Ac-EYIRLK-NH2
modifications: lactam 1-6
SMILES: CC[C@H](C)[C@@H]1NC(=O)[C@H](Cc2ccc(O)cc2)NC(=O)[C@@H](NC(C)=O)CCC(=O)NCCCC[C@@H](C(N)=O)NC(=O)[C@H](CC(C)C)NC(=O)[C@H](CCCNC(=N)N)NC1=O
notes: underlining that marks the cyclized portion is lost in the text
B16 came in with a Ki of less than 100 µM.

B17: Ac-F(pF)-I-R-L-P-NH2 (peptide)
peptide: Ac-[Phe(4-F)]IRLP-NH2
SMILES: CC[C@H](C)[C@H](NC(=O)[C@H](Cc1ccc(F)cc1)NC(C)=O)C(=O)N[C@@H](CCCNC(=N)N)C(=O)N[C@@H](CC(C)C)C(=O)N1CCC[C@H]1C(N)=O
The molecule B17 came in with an inhibition constant (Ki) of less than 100 µM.

B18: Ac-F(pCONH2)-I-R-L-P-NH2 (peptide)
peptide: Ac-[Phe(4-CONH2)]IRLP-NH2
SMILES: CC[C@H](C)[C@H](NC(=O)[C@H](Cc1ccc(C(N)=O)cc1)NC(C)=O)C(=O)N[C@@H](CCCNC(=N)N)C(=O)N[C@@H](CC(C)C)C(=O)N1CCC[C@H]1C(N)=O
In turn, B18 returned a Ki of less than 100 µM.
In turn, Ac-[NMeY][Chg]RLP-NH2 [Ac-(Me)Y-Chg-R-L-P-NH2] had an inhibition constant (Ki) of less than 100 µM.
On to Ac-Y[Phg]RLP-NH2 [Ac-Y-Pgl-R-L-P-NH2], for which the Ki is less than 100 µM.
On to Ac-Y[Cha]RLP-NH2 [Ac-Y-Cha-R-L-P-NH2], for which the Ki was less than 100 µM.
For Ac-Y[Pen(Me)]RLP-NH2 [Ac-Y-Pen(Me)-R-L-P-NH2] the value was less than 100 µM; for Ac-Y[Thr(Me)]RLP-NH2 [Ac-Y-T(Me)-R-L-P-NH2], less than 100 µM; for YXRLP (N-term Ac; residue 2 = allo-Ile; C-term NH2) [Ac-Y-(allo-I)-R-L-P-NH2], less than 100 µM.
For Ac-[(iBu)Tyr][Chg]RLP-NH2 [Ac-(iBu)Y-Chg-R-L-P-NH2] the value was less than 100 µM.
For Ac-[(iBu)Tyr]I[Orn(Nδ-C3H7N)]LP-NH2 [Ac-(iBu)Y-I-Orn(N^δ-C3H7N)-L-P-NH2], the Ki was less than 100 µM.
